# Data reported in patent US20250115669A1, “FGFR1/KLB Targeting Agonistic Antigen-Binding Proteins and Conjugates Thereof with GLP-1R Agonistic Peptides” (SANOFI, priority 2020, published 2025).
# T1: human beta-Klotho (Homo sapiens, UniProt Q86Z14)
# T1 sequence (Q86Z14 1-1044): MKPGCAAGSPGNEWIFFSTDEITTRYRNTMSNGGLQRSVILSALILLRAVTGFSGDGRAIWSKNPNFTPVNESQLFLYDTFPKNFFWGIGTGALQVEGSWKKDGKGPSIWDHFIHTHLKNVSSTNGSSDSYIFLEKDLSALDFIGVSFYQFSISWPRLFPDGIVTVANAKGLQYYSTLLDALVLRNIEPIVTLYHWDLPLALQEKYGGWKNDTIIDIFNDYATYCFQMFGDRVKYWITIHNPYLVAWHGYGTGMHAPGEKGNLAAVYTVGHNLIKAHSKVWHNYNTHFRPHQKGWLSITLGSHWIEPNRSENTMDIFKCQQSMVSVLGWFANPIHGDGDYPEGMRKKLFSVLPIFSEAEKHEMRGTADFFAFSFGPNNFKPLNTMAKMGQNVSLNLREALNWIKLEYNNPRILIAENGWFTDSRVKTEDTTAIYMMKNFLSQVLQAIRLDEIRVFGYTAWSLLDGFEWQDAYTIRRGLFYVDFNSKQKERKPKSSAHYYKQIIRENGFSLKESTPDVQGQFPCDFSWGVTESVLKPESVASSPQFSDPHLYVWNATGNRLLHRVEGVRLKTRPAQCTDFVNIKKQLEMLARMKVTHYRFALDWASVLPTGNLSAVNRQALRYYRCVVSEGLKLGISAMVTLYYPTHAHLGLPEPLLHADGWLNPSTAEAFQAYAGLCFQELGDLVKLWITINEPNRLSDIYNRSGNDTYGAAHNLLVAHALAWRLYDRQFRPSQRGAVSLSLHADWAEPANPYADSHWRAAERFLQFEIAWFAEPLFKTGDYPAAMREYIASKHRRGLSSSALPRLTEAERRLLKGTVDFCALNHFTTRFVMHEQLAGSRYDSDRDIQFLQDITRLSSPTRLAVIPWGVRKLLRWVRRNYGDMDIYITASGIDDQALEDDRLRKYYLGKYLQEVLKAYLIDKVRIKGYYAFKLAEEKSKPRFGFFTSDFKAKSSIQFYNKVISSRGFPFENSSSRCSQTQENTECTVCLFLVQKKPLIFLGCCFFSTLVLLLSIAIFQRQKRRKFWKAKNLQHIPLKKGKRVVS
# Molecular target: T1, human beta-Klotho
# Assay: SPR off-rate screening of antibody mutants (human beta-Klotho captured by anti-His antibody)
# Assay type: binding
# Conditions: mean, n=3
# Protocol: Screening of antibody mutants for binding to human beta-Klotho was determined in a different SPR assay set up. Human beta-Klotho was affinity captured by an anti-His antibody (from His capture kit, GE Healthcare) that was immobilized to a series S CM5 chip (GE Healthcare) by amine reactive coupling as described above. The antibody samples were used as analytes at 50 nmol/L concentration. Association time was 240 sec and dissociation time was 300 sec. Chip surfaces were regenerated using the regeneration solution supplied with the His capture kit. The off-rates (kd) were determined using single exponential fitting in the Biacore 8K Evaluation Software version 1.1.1.7442 (GE Healthcare).
row,Molecule,koff human KLB
1,"Ab0319: IgG4 PE; 16H7 VL (D49Y, D50E, D91T, N93E); 16H7 VH (M34V, I83T, D109E) (antibody) VH: QVTLKESGPVLVKPTETLTLTCTVSGFSLNNARVGVSWIRQPPGKALEWLAHIFSNDEKSYSTSLKSRLTISKDTSKSQVVLTMTNMDPVDTATYYCARSVVTGGYYYEGMDVWGQGTTVTVSS light: SYVLTQPPSVSVAPGQTARITCGGNNIGSESVHWYQQKPGQAPVLVVYYESDRPSGIPERFSGSNSGNTATLTISRVEAGDEADYYCQVWTGESDHVVFGGGTKLTVLGQPKANPTVTLFPPSSEELQANKATLVCLISDFYPGAVTVAWKADGSPVKAGVETTKPSKQSNNKYAASSYLSLTPEQWKSHRSYSCQVTHEGSTVEKTVAPTECS",invalid fit
2,"Ab0371: IgG4 PE; 16H7 VL (Y48del, D95E, W90H); 16H7 VH (M34V, H52W, I83T, D109E) (antibody) VH: QVTLKESGPVLVKPTETLTLTCTVSGFSLNNARVGVSWIRQPPGKALEWLAWIFSNDEKSYSTSLKSRLTISKDTSKSQVVLTMTNMDPVDTATYYCARSVVTGGYYYEGMDVWGQGTTVTVSS light: SYVLTQPPSVSVAPGQTARITCGGNNIGSESVHWYQQKPGQAPVLVVDDSDRPSGIPERFSGSNSGNTATLTISRVEAGDEADYYCQVHDGNSEHVVFGGGTKLTVLGQPKANPTVTLFPPSSEELQANKATLVCLISDFYPGAVTVAWKADGSPVKAGVETTKPSKQSNNKYAASSYLSLTPEQWKSHRSYSCQVTHEGSTVEKTVAPTECS",no binding
3,"Ab0378: IgG4 PE; 16H7 VL (Y48del, D95V, W90F); 16H7 VH (M34V, H52S, F54W, I83T, D109E) (antibody) VH: QVTLKESGPVLVKPTETLTLTCTVSGFSLNNARVGVSWIRQPPGKALEWLASIWSNDEKSYSTSLKSRLTISKDTSKSQVVLTMTNMDPVDTATYYCARSVVTGGYYYEGMDVWGQGTTVTVSS light: SYVLTQPPSVSVAPGQTARITCGGNNIGSESVHWYQQKPGQAPVLVVDDSDRPSGIPERFSGSNSGNTATLTISRVEAGDEADYYCQVFDGNSVHVVFGGGTKLTVLGQPKANPTVTLFPPSSEELQANKATLVCLISDFYPGAVTVAWKADGSPVKAGVETTKPSKQSNNKYAASSYLSLTPEQWKSHRSYSCQVTHEGSTVEKTVAPTECS",no binding
4,"Ab0377: IgG4 PE; 16H7 VL (Y48del, D95V, W90F); 16H7 VH (M34V, F54W, I83T, D109E) (antibody) VH: QVTLKESGPVLVKPTETLTLTCTVSGFSLNNARVGVSWIRQPPGKALEWLAHIWSNDEKSYSTSLKSRLTISKDTSKSQVVLTMTNMDPVDTATYYCARSVVTGGYYYEGMDVWGQGTTVTVSS light: SYVLTQPPSVSVAPGQTARITCGGNNIGSESVHWYQQKPGQAPVLVVDDSDRPSGIPERFSGSNSGNTATLTISRVEAGDEADYYCQVFDGNSVHVVFGGGTKLTVLGQPKANPTVTLFPPSSEELQANKATLVCLISDFYPGAVTVAWKADGSPVKAGVETTKPSKQSNNKYAASSYLSLTPEQWKSHRSYSCQVTHEGSTVEKTVAPTECS",no binding
5,"Ab0376: IgG4 PE; 16H7 VL (Y48del, D95E, W90F, S94C, H96C); 16H7 VH (M34V, F54W, I83T, D109E) (antibody) VH: QVTLKESGPVLVKPTETLTLTCTVSGFSLNNARVGVSWIRQPPGKALEWLAHIWSNDEKSYSTSLKSRLTISKDTSKSQVVLTMTNMDPVDTATYYCARSVVTGGYYYEGMDVWGQGTTVTVSS light: SYVLTQPPSVSVAPGQTARITCGGNNIGSESVHWYQQKPGQAPVLVVDDSDRPSGIPERFSGSNSGNTATLTISRVEAGDEADYYCQVFDGNCECVVFGGGTKLTVLGQPKANPTVTLFPPSSEELQANKATLVCLISDFYPGAVTVAWKADGSPVKAGVETTKPSKQSNNKYAASSYLSLTPEQWKSHRSYSCQVTHEGSTVEKTVAPTECS",no binding
6,"Ab0320: IgG4 PE; 16H7 VL (N25S, D49Y, D50E, D91T, N93E); 16H7 VH (M34V, I83T, D109E) (antibody) VH: QVTLKESGPVLVKPTETLTLTCTVSGFSLNNARVGVSWIRQPPGKALEWLAHIFSNDEKSYSTSLKSRLTISKDTSKSQVVLTMTNMDPVDTATYYCARSVVTGGYYYEGMDVWGQGTTVTVSS light: SYVLTQPPSVSVAPGQTARITCGGSNIGSESVHWYQQKPGQAPVLVVYYESDRPSGIPERFSGSNSGNTATLTISRVEAGDEADYYCQVWTGESDHVVFGGGTKLTVLGQPKANPTVTLFPPSSEELQANKATLVCLISDFYPGAVTVAWKADGSPVKAGVETTKPSKQSNNKYAASSYLSLTPEQWKSHRSYSCQVTHEGSTVEKTVAPTECS",invalid fit
7,"Ab0372: IgG4 PE; 16H7 VL (Y48del, D95E, W90H, S1C, S94C); 16H7 VH (M34V, H52W, I83T, D109E) (antibody) VH: QVTLKESGPVLVKPTETLTLTCTVSGFSLNNARVGVSWIRQPPGKALEWLAWIFSNDEKSYSTSLKSRLTISKDTSKSQVVLTMTNMDPVDTATYYCARSVVTGGYYYEGMDVWGQGTTVTVSS light: CYVLTQPPSVSVAPGQTARITCGGNNIGSESVHWYQQKPGQAPVLVVDDSDRPSGIPERFSGSNSGNTATLTISRVEAGDEADYYCQVHDGNCEHVVFGGGTKLTVLGQPKANPTVTLFPPSSEELQANKATLVCLISDFYPGAVTVAWKADGSPVKAGVETTKPSKQSNNKYAASSYLSLTPEQWKSHRSYSCQVTHEGSTVEKTVAPTECS",no binding
8,"Ab0373: IgG4 PE; 16H7 VL (Y48del, D95E, W90H, S94C, H96C); 16H7 VH (M34V, H52W, I83T, D109E) (antibody) VH: QVTLKESGPVLVKPTETLTLTCTVSGFSLNNARVGVSWIRQPPGKALEWLAWIFSNDEKSYSTSLKSRLTISKDTSKSQVVLTMTNMDPVDTATYYCARSVVTGGYYYEGMDVWGQGTTVTVSS light: SYVLTQPPSVSVAPGQTARITCGGNNIGSESVHWYQQKPGQAPVLVVDDSDRPSGIPERFSGSNSGNTATLTISRVEAGDEADYYCQVHDGNCECVVFGGGTKLTVLGQPKANPTVTLFPPSSEELQANKATLVCLISDFYPGAVTVAWKADGSPVKAGVETTKPSKQSNNKYAASSYLSLTPEQWKSHRSYSCQVTHEGSTVEKTVAPTECS",no binding
9,"Ab0374: IgG4 PE; 16H7 VL (Y48del, D95E, W90F); 16H7 VH (M34V, F54W, I83T, D109E) (antibody) VH: QVTLKESGPVLVKPTETLTLTCTVSGFSLNNARVGVSWIRQPPGKALEWLAHIWSNDEKSYSTSLKSRLTISKDTSKSQVVLTMTNMDPVDTATYYCARSVVTGGYYYEGMDVWGQGTTVTVSS light: SYVLTQPPSVSVAPGQTARITCGGNNIGSESVHWYQQKPGQAPVLVVDDSDRPSGIPERFSGSNSGNTATLTISRVEAGDEADYYCQVFDGNSEHVVFGGGTKLTVLGQPKANPTVTLFPPSSEELQANKATLVCLISDFYPGAVTVAWKADGSPVKAGVETTKPSKQSNNKYAASSYLSLTPEQWKSHRSYSCQVTHEGSTVEKTVAPTECS",no binding
